Laboratory results published in FireProtDB (doi:10.1002/pro.343).

B1: Multidrug resistance operon repressor, P52003 (parent)
chain: MNYPVNPDLMPALMAVFQHVRTRIQSELDCQRLDLTPPDVHVLKLIDEQRGLNLQDLGRQMCRDKALITRKIRELEGRNLVRRERNPSDQRSFQLFLTDEGLAIHQHAEAIMSRVHDELFAPLTPVEQATLVHLLDQCLAAQPLEDI

Variants of: B1
Conditions: Pseudomonas aeruginosa (strain ATCC 15692 / DSM 22644 / CIP 104116 / JCM 14847 / LMG 12228 / 1C / PRS 101 / PAO1); pH 7.2; Thermal; CD; Sodium phosphate 10 mM; structure 1LNW; whole UniProt chain shown

| Variant | Tm |
| --- | --- |
| MNYPVNPDLMPAMMAVFQHVRTRIQSELDCQRLDLTPPDVHVLKLIDEQRGLNLQDLGRQMCRDKALITRKIRELEGRNLVRRERNPSDQRSFQLFLTDEGLAIHQHAEAIMSRVHDELFAPLTPVEQATLVHLLDQCLAAQPLEDI [L13M] | 47.8 °C |

Same assay, conditions: Pseudomonas aeruginosa (strain ATCC 15692 / DSM 22644 / CIP 104116 / JCM 14847 / LMG 12228 / 1C / PRS 101 / PAO1); pH 7.2; 22 °C; GdnHCl; CD; Sodium phosphate 10 mM; transition: 3; structure 1LNW; whole UniProt chain shown

| Variant | denaturant midpoint (higher = more stable) |
| --- | --- |
| MNYPVNPDLMPALMAVFQHVWTRIQSELDCQRLDLTPPDVHVLKLIDEQRGLNLQDLGRQMCRDKALITRKIRELEGRNLVRRERNPSDQRSFQLFLTDEGLAIHQHAEAIMSRVHDELFAPLTPVEQATLVHLLDQCLAAQPLEDI [R21W] | 2.6 M |
